Measured values published in paper PMC9040800.

Test system: DctD2 D57Q (d-DctD2 mimic) (Vibrio vulnificus)
Assay: EMSA
Conditions: EMSA: 50 mM Tris-HCl pH 8.0, 20 mM KCl, 50 mM MgCl2 (so in the source), 100 mM NaCl; approx. 50 nM 32P-labeled probe; 6% native PAGE; temperature not stated

Work on “EPS-II cluster regulatory region probe (480 bp)” yielded a binding of over 700 nM.
